Assay results reported in article PMC5642512.

What was measured:
[1] = target: Nur77 (UniProt P22736); assay: co-IP of transfected tagged proteins; settings: reference: wild-type Flag-Bcl-2
[2] = target: Nur77 (UniProt P22736); assay: co-IP anti-Flag (Nur77), anti-Myc (Bcl-2) blot; settings: reference: wild-type Myc-Bcl-2; sites S87

## Bcl-2 (from UniProt P10415) Flag-Bcl-2/S87A
[1]; sites S87
  binding against the reference: weaker

## Bcl-2 (from UniProt P10415) Flag-Bcl-2/T56A
[1]; sites T56
  binding against the reference: weaker

## Bcl-2 (from UniProt P10415) Myc-Bcl-2/S87A
[2]
  binding against the reference: lost
